Assay results from the supplement of paper PMC7877785.
± gives the uncertainty stated by the source.

Experiment: self-splicing fitness, log relative to wild type (ln ratio); higher = more splicing; Tetrahymena group I intron in knt gene, E. coli kanamycin selection, DiMSum; sequences stand for … in CUCUCU…GGAGGGAAAAGUUAUCAGGCAUGCACCUGGUAGCUAGUCUUUAAACCAAUAGAUUGCAUCGGUUUAAAAGGCAAGACCGUCAAAUUGCGGGAAAGGGGUCAACAGCCGUUCAGUACCAAGUCUCAGGGGAAACUUUGAGAUGGCCUUGCAAAGGGUAUGGUAAUAAGCUGACGGACAUGGUCCUAACCACGCAGCCAAGUCCUAAGUCAACAGAUCUUCUGUUGAUAUGGAUGCAGUUCACAGACUAAAUGUCGGUCGGGGAAGAUGUAUUCUUCUCAUAAGAUAUAGUCGGACCUCUCCUUAAUGGGAGCUAGCGGAUGAAGUGAUGCAACACUGGAGCCGCUGGGAACUAAUUUGUAUGCGAAAGUAUAUUGAUUAGUUUUGGAGUACUCGUGGUCG
How it was run: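 Colonies from six replicate transformations of E. coli BL21(DE3) were pooled and amplicon-sequenced on an Illumina HiSeq 2500. The library placed an intron with all eight P1ex-region nucleotides randomised inside the knt kanamycin-resistance gene on pET-22b(+), and cells grew overnight at 37°C or 30°C on LB agar with or without 25 μg/mL kanamycin (plus 100 μg/mL carbenicillin, 50 μM IPTG, 0.2% rhamnose). Fitness is the DiMSum error-weighted combination of wild-type-normalised replicate fold changes, kanamycin versus none.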

| Sequence | self-splicing fitness (ln) (30 °C) | self-splicing fitness (ln) (37 °C) |
| --- | --- | --- |
| GGUUAGCAAUAUUACGAGGA | -3.3 ± 0.29 | -1.96 ± 0.24 |
| GGUUAGCAAUAUUACGAUCU | -1.04 ± 0.24 | -0.76 ± 0.24 |
| GGUUAGCAAUAUUACGAUGG | -1.88 ± 0.23 | -1.16 ± 0.24 |
| GGUUAGCAAUAUUACGAUUA | -0.191 ± 0.13 | 0.0365 ± 0.12 |
| GGUUAGCAAUAUUACGCACG | -0.656 ± 0.11 | -0.507 ± 0.13 |
| GGUUAGCAAUAUUACGCAGU | -1.5 ± 0.27 | -1.67 ± 0.3 |
| GGUUAGCAAUAUUACGCCAU | -1.39 ± 0.38 | – |
| GGUUAGCAAUAUUACGCCCU | -0.754 ± 0.45 | -0.983 ± 0.48 |
| GGUUAGCAAUAUUACGCGAU | -2.48 ± 0.23 | -3.48 ± 0.46 |
| GGUUAGCAAUAUUACGCGUC | -1.53 ± 0.2 | -1.04 ± 0.18 |
| GGUUAGCAAUAUUACGCGUG | -0.908 ± 0.051 | -0.592 ± 0.063 |
| GGUUAGCAAUAUUACGCUGG | -3.44 ± 0.47 | -1.59 ± 0.31 |
| GGUUAGCAAUAUUACGGAAA | -1.53 ± 0.25 | -1.76 ± 0.22 |
| GGUUAGCAAUAUUACGGAAG | – | -2.49 ± 0.36 |
| GGUUAGCAAUAUUACGGAGU | -1.27 ± 0.18 | -0.724 ± 0.2 |
| GGUUAGCAAUAUUACGGAUG | -0.648 ± 0.1 | -0.92 ± 0.14 |
| GGUUAGCAAUAUUACGGAUU | 0.0654 ± 0.078 | -0.0766 ± 0.092 |
| GGUUAGCAAUAUUACGGCGA | -0.237 ± 0.09 | 0.106 ± 0.086 |
| GGUUAGCAAUAUUACGGCGC | 0.645 ± 0.28 | -0.634 ± 0.25 |

| Sequence | self-splicing fitness (ln) (30 °C) | self-splicing fitness (ln) (37 °C) |
| --- | --- | --- |
| GGUUAGCAAUAUUACGGGCG | 0.777 ± 0.094 | 0.208 ± 0.1 |
| GGUUAGCAAUAUUACGUAAA | -1.22 ± 0.13 | -0.462 ± 0.2 |
| GGUUAGCAAUAUUACGUCGG | -2.3 ± 0.36 | -1.7 ± 0.35 |
| GGUUAGCAAUAUUACGUCGU | -0.855 ± 0.073 | 0.451 ± 0.11 |
| GGUUAGCAAUAUUACGUCUC | -0.348 ± 0.15 | -0.0912 ± 0.18 |
| GGUUAGCAAUAUUACGUGAG | -0.894 ± 0.098 | -0.197 ± 0.12 |
| GGUUAGCAAUAUUACGUUCC | -1.45 ± 0.11 | -0.8 ± 0.12 |
| GGUUAGCAAUAUUACGUUGU | -2.02 ± 0.15 | -1.71 ± 0.18 |
| GUAAAGCAAUAUUACGAACA | -0.969 ± 0.15 | 0.323 ± 0.16 |
| GUAAAGCAAUAUUACGAAGC | -1.89 ± 0.13 | -1.83 ± 0.22 |
| GUAAAGCAAUAUUACGACCU | 0.443 ± 0.18 | 0.00961 ± 0.19 |
| GUAAAGCAAUAUUACGACUG | -2.11 ± 0.2 | -1.48 ± 0.28 |
| GUAAAGCAAUAUUACGAGGA | -1.81 ± 0.1 | -1.52 ± 0.15 |
| GUAAAGCAAUAUUACGAGUU | -1.12 ± 0.093 | -0.815 ± 0.12 |
| GUAAAGCAAUAUUACGAUAC | -0.815 ± 0.14 | -0.547 ± 0.16 |
| GUAAAGCAAUAUUACGAUUC | 0.475 ± 0.08 | 0.115 ± 0.091 |
| GUAAAGCAAUAUUACGCAAA | -0.784 ± 0.13 | -0.594 ± 0.16 |
| GUAAAGCAAUAUUACGCAGU | -2.99 ± 0.18 | -1.06 ± 0.16 |
| GUAAAGCAAUAUUACGCAUU | -1.76 ± 0.099 | -0.597 ± 0.11 |
